# US20250043302A1, “MUTATED HYDROXYPHENYLPYRUVATE DIOXYGENASE POLYPEPTIDE, AND CODING GENE AND USE THEREOF” (BEIJING DABEINONG BIOTECHNOLOGY CO., LTD., priority 2021, published 2025)
# Assays:
# Type in all cases: in vivo
# [1] = test system: Arabidopsis thaliana T1 plants; assay: Topramezone tolerance of transgenic Arabidopsis thaliana T1 plants (spray, bleached leaf area grade, damage score); conditions: 7 DAT, Table 4; for Classification and statistics of the grade of pesticide damage: Grade 0 / Classification and statistics of the grade of pesticide damage: Grade 1 / Classification and statistics of the grade of pesticide damage: Grade 2 / Classification and statistics of the grade of pesticide damage: Grade 3: number of plants; for Scores: pesticide damage score 0-100
# Outline: (§1)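 T1 transformants selected by glufosinate; 18-day-old plants, with empty-vector and wild-type controls, sprayed with topramezone (25–200 g ai/ha), isoxaflutole (35–280 g ai/ha) or mesotrione (52.5–420 g ai/ha), water as 0×. Bleached leaf area fraction scored at 7 DAT as grades 0–3.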
# [2] = test system: Arabidopsis thaliana T1 plants; assay: Mesotrione tolerance of transgenic Arabidopsis thaliana T1 plants (spray, bleached leaf area grade, damage score); set-up: Scores: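 damage score 0-100 computed as Σ(N×S)/(T×M)×100 over grades 0-3 with higher meaning more damage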; conditions: Arabidopsis thaliana T1 plants; for Grade 0 (classification and statistics of the grade of pesticide damage; number of plants) / Grade 1 (classification and statistics of the grade of pesticide damage; number of plants) / Grade 2 (classification and statistics of the grade of pesticide damage; number of plants) / Grade 3 (classification and statistics of the grade of pesticide damage; number of plants): 16 plants
# Outline: as §1
# [3] = test system: Arabidopsis thaliana T1 plants; assay: Isoxaflutole tolerance of transgenic Arabidopsis thaliana T1 plants (spray, bleached leaf area grade, damage score); set-up: Scores (pesticide damage): scale not given here; conditions: spray, Arabidopsis thaliana T1 plants; for Classification and statistics of the grade of pesticide damage: Grade 0 (number of plants) / Classification and statistics of the grade of pesticide damage: Grade 1 (number of plants) / Classification and statistics of the grade of pesticide damage: Grade 2 (number of plants) / Classification and statistics of the grade of pesticide damage: Grade 3 (number of plants): 16 plants
# Outline: as §1
# [4] = isoxaflutole 35 g ai/ha (0.5x field concentration)
# [5] = isoxaflutole 70 g ai/ha (1x field concentration)
molecule,measurement,setting,value
"ZmHPPD-02: nucleotide sequence encoding wild-type Zea mays HPPD; vector DBN11766 (nucleic acid, ZmHPPD-02 Nucleotide Sequence, vector DBN11766) DNA: ATGCCACCCACACCCACAGCAGCAGCGGCGGGCGCAGCGGTCGCAGCGGCGTCAGCGGCGGAGCAAGCGGCGTTCAGATTGGTTGGTCACCGCAACTTCGTGAGATTCAATCCTCGCTCAGATAGATTCCATACTCTGGCCTTCCACCATGTTGAGCTTTGGTGCGCTGATGCTGCTTCTGCTGCTGGAAGGTTCAGCTTCGGTTTGGGTGCTCCCCTCGCTGCTAGATCTGATTTGAGCACTGGTAACTCAGCACATGCTTCCCTCCTGCTTAGATCTGGCTCTCTGAGCTTCCTTTTCACTGCTCCATATGCTCATGGTGCTGATGCTGCTACAGCTGCTCTCCCTTCATTCTCCGCTGCTGCTGCTAGGAGATTCGCTGCTGATCACGGATTGGCTGTGAGGGCTGTTGCACTTAGAGTTGCTGATGCTGAGGAGGCCTTCCGCACCTCTGTTGCTGCTGGAGCCAGACCAGCTTTCGGACCTGTTGATCTCGGAAGGGGTTTCCGCCTGGCTGAGGTGGAGCTTTACGGCGATGTGGTTCTGCGCTACGTTAGCTATCCTGATGGTGCTGCTGGTGAACCTTTCCTTCCAGGATTCGAGGGTGTGGCCTCACCAGGTGCCGCTGATTACGGCCTGTCCAGATTCGACCACATTGTTGGAAATGTTCCTGAGCTTGCTCCAGCTGCTGCCTACTTCGCTGGCTTCACCGGATTCCATGAGTTCGCCGAGTTCACCACTGAGGATGTGGGAACTGCTGAGTCTGGTTTGAATAGCATGGTGCTCGCCAACAATTCAGAGAACGTTTTGCTCCCTCTGAATGAGCCCGTGCACGGAACAAAGAGAAGGTCCCAGATTCAAACCTTCTTGGATCACCACGGCGGCCCAGGTGTTCAGCATATGGCTCTCGCCTCCGATGACGTGTTGAGAACCCTCAGGGAGATGCAAGCCAGGTCTGCTATGGGTGGCTTCGAGTTCATGGCCCCACCTACAAGCGATTACTATGATGGTGTGCGCAGAAGGGCTGGCGACGTTCTTACCGAGGCTCAGATCAAGGAGTGCCAAGAGCTGGGCGTGCTTGTTGATAGAGATGACCAGGGAGTTCTGCTTCAAATTTTCCCCAAGCCAGTGGGCGACAGGCCTACTTTGTTCCTCGAGATTATCCAGAGAATCGGATGCATGGAGAGGGATGAGAAGGGTCAGGAGTACCAAAAGGGAGGTTGCGGCGGATTCGGCAAGGGAAATTTCTCACAACTCTTCAAGTCCATCGAGGACTATGAAAAGAGTCTGGAAGCGATGCAGGCAGCAGCAGCAGCAACCGCACAGGGGTCGTGA",Classification and statistics of the grade of pesticide damage: Grade 0,[1]; topramezone 25 g ai/ha (1×),0
same,Classification and statistics of the grade of pesticide damage: Grade 1,[1]; topramezone 25 g ai/ha (1×),0
same,Classification and statistics of the grade of pesticide damage: Grade 2,[1]; topramezone 25 g ai/ha (1×),0
same,Classification and statistics of the grade of pesticide damage: Grade 3,[1]; topramezone 25 g ai/ha (1×),16
same,Classification and statistics of the grade of pesticide damage: Grade 0,[1]; topramezone 100 g ai/ha (4×),0
same,Classification and statistics of the grade of pesticide damage: Grade 1,[1]; topramezone 100 g ai/ha (4×),0
same,Classification and statistics of the grade of pesticide damage: Grade 2,[1]; topramezone 100 g ai/ha (4×),0
same,Classification and statistics of the grade of pesticide damage: Grade 3,[1]; topramezone 100 g ai/ha (4×),16
same,Scores,[1]; topramezone 25 g ai/ha (1×),100
same,Scores,[1]; topramezone 100 g ai/ha (4×),100
same,Resistance evaluation,[1]; topramezone 25 g ai/ha (1×),non-resistant (non-resistant plants (scores 68-100))
same,Resistance evaluation,[1]; topramezone 100 g ai/ha (4×),non-resistant (non-resistant plants (scores 68-100))
same,Resistance evaluation,[2]; mesotrione 52.5 g ai/ha,Non-resistant
same,Scores,[2]; mesotrione 52.5 g ai/ha,100
same,Grade 0 (classification and statistics of the grade of pesticide damage; number of plants),[2]; mesotrione 52.5 g ai/ha,0
same,Grade 1 (classification and statistics of the grade of pesticide damage; number of plants),[2]; mesotrione 52.5 g ai/ha,0
same,Grade 2 (classification and statistics of the grade of pesticide damage; number of plants),[2]; mesotrione 52.5 g ai/ha,0
same,Grade 3 (classification and statistics of the grade of pesticide damage; number of plants),[2]; mesotrione 52.5 g ai/ha,16
same,Resistance evaluation,[2]; mesotrione 105 g ai/ha,Non-resistant
same,Scores,[2]; mesotrione 105 g ai/ha,100
same,Grade 0 (classification and statistics of the grade of pesticide damage; number of plants),[2]; mesotrione 105 g ai/ha,0
same,Grade 1 (classification and statistics of the grade of pesticide damage; number of plants),[2]; mesotrione 105 g ai/ha,0
same,Grade 2 (classification and statistics of the grade of pesticide damage; number of plants),[2]; mesotrione 105 g ai/ha,0
same,Grade 3 (classification and statistics of the grade of pesticide damage; number of plants),[2]; mesotrione 105 g ai/ha,16
same,Resistance evaluation,[3]; [4],Non-resistant
same,Scores (pesticide damage),[3]; [4],100
same,Classification and statistics of the grade of pesticide damage: Grade 0 (number of plants),[3]; [4],0
same,Classification and statistics of the grade of pesticide damage: Grade 1 (number of plants),[3]; [4],0
same,Classification and statistics of the grade of pesticide damage: Grade 2 (number of plants),[3]; [4],0
same,Classification and statistics of the grade of pesticide damage: Grade 3 (number of plants),[3]; [4],16
same,Resistance evaluation,[3]; [5],Non-resistant
same,Scores (pesticide damage),[3]; [5],100
same,Classification and statistics of the grade of pesticide damage: Grade 0 (number of plants),[3]; [5],0
same,Classification and statistics of the grade of pesticide damage: Grade 1 (number of plants),[3]; [5],0
same,Classification and statistics of the grade of pesticide damage: Grade 2 (number of plants),[3]; [5],0
same,Classification and statistics of the grade of pesticide damage: Grade 3 (number of plants),[3]; [5],16
